Target: mannose receptor (on NR8383 rat alveolar macrophages) (rat)
Test: cell-based or functional assay

Substance	uptake by rat alveolar macrophages in the absence of mannan (GCD activity in cell lysate, pNP-G assay) [ng/mL lysate]	uptake by rat alveolar macrophages, reduction by mannan (GCD activity in cell lysate, pNP-G assay) [%]
prh-GCD cross-linked with bis-NHS-PEG5 at a 50:1 bis-NHS-PEG5:GCD molar ratio (from UniProt P04062 40-536) (enzyme)	200	85
Plant recombinant human glucocerebrosidase (prh-GCD) (from UniProt P04062 40-536) (enzyme)	333	90

Reference: US20120328589A1
